Common to all, as to experiment: AVEXIS screen signal:noise (double-corrected)
For assay [1], the target named is T1, ADP096.
T1 chain: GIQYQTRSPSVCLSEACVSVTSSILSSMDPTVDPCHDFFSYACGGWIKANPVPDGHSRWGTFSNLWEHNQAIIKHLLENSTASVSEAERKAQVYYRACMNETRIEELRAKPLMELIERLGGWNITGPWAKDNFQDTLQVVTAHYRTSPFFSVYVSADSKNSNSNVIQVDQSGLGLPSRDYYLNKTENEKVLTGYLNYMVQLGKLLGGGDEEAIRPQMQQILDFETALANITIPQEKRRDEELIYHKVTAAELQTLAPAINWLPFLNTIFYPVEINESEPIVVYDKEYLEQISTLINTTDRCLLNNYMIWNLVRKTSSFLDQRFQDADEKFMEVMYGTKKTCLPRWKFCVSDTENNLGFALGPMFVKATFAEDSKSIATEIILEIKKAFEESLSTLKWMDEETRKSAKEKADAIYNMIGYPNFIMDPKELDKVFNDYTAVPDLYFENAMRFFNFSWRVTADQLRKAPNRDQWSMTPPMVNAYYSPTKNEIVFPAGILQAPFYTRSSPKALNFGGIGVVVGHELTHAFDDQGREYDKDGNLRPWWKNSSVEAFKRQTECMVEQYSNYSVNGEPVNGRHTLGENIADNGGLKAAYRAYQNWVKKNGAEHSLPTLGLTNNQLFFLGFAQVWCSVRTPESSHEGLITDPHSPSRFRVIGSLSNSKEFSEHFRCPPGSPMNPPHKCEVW

Assay [2] concerns the target T2, ADP375.
T2 chain: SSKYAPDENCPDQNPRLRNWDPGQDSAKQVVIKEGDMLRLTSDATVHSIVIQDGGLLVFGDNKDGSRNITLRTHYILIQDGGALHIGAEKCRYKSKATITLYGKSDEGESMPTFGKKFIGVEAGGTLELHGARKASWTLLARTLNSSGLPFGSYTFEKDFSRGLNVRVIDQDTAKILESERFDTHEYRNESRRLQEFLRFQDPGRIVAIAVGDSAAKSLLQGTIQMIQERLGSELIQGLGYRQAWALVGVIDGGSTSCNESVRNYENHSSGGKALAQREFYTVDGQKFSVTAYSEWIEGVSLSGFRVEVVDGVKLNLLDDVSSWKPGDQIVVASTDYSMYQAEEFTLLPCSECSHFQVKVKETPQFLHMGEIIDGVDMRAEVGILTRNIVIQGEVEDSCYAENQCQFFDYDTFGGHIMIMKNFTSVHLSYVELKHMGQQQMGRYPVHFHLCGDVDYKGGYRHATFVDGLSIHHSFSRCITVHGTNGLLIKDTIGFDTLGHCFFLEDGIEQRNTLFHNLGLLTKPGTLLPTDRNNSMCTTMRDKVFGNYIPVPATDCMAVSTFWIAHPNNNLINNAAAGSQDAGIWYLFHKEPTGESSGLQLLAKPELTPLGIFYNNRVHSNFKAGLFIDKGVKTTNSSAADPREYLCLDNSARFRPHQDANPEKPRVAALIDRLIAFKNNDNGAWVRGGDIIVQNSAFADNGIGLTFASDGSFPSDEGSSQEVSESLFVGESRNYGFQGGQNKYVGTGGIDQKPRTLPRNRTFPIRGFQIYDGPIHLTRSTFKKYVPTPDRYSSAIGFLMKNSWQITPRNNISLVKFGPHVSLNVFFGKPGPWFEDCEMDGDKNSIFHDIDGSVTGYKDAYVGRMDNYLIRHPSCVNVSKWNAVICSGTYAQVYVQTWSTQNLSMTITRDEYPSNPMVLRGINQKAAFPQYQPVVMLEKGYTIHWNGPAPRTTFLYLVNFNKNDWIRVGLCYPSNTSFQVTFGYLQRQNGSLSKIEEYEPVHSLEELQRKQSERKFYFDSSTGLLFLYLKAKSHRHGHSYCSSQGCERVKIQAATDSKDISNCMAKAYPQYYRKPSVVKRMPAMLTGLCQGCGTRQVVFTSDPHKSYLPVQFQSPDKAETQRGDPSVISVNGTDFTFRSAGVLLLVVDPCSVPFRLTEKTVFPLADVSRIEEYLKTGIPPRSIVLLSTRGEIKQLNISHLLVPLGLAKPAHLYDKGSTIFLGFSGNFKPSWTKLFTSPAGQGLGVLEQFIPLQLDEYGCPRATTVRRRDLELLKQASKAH

Assay [3] deals with ADP123.
Assay [4] addresses T3, ADP385.
T3 chain: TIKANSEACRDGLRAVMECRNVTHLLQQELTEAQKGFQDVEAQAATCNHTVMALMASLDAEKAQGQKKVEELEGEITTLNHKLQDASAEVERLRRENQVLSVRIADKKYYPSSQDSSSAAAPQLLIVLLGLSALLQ

Assay [5] addresses T4, ADP293.
T4 chain: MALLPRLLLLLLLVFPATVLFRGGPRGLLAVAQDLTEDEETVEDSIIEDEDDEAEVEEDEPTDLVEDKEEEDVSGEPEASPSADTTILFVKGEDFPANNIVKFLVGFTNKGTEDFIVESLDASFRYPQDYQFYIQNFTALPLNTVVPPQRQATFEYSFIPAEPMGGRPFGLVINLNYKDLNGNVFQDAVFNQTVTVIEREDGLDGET

The target in assay [6] is ADP099.
ADP099, sequence (P02786 89-760): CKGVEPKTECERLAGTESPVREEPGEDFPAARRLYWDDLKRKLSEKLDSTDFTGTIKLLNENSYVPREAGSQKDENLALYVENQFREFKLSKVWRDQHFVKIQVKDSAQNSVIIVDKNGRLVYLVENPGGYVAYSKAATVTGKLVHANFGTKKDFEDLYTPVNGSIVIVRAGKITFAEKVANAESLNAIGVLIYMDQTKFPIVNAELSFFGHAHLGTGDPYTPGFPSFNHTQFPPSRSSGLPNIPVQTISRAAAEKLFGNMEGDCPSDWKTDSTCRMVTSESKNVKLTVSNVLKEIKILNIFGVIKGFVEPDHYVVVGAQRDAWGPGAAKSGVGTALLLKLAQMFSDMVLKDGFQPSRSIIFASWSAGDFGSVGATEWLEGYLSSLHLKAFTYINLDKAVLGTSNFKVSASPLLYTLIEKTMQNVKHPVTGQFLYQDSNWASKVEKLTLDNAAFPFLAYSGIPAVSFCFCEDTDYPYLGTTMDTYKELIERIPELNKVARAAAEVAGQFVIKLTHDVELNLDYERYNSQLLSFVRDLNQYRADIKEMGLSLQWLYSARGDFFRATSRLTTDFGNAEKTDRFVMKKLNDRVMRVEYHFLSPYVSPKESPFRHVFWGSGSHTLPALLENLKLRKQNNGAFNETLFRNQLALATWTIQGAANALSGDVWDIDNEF
The target in assay [7] is T5, ADP279.
T5 chain: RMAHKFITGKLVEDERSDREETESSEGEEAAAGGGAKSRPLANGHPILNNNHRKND

Assay [8] concerns the target T6, ADP106.
T6 chain: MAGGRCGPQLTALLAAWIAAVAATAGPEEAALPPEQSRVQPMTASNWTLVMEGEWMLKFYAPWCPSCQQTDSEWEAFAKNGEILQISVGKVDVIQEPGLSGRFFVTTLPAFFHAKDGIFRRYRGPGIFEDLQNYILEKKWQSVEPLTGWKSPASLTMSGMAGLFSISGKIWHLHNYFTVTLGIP

B1: ADP237 (protein)
chain: TKKKVSVSEINFDSAVDDVQWCGNNHMTVLVKTVKGRLYRSSDGGKIWTNIAGNLADKENNKADPSSNHMNEMTTVDLIMVNSVNKNIVLIIGNQKNHYISEDSGETFRLLNYQNKINFWQFHSTKTHWALVSSWTEACYSNDDNSGECMQTLSLTKDLGRTFQLIDIYVVQFNWGDKESHLEDTIYYTRHKNRNGHQQRFSGWSKDVDFVATHNFGKSVDVLVKQGNKFLISNGYIFVAKLNDVIKQTVNMMVSTDGGKTFNKANLPENIHEKSYTVLDTSEGSIMLHVNHGTSSEKINTGNVYISDASGLNYALSLPNNIRTSSGECEFDRVLSLDGVYIANFLDVNNEIKDEDLRFQNFKSAIEEDIAPFETNTEKRKKQYNKGKNEDAVRTVISFNKGGEWSYLKAPKVDSRGNKYECGDNCYLHLHGITNYHQYAPFYSIENAVGIIMGTGNVGSHLRYESDEVNTFLSRDGGVTWIEAHKGPYIYEYGDYGGLIVMADDLRKTNQIVFSWNEGQSWFDFELGQFSIDVDNIVAEPNSASVEFLVYGTRNDVGVLYHLDFNALGQPLCKGLWAADSVSSDYETWSPTSGNFNDKCILGRKITYTRRKQTSECFNGKDLKRTVDKKPCECTPEDYECETGFTRKIGSYECKPNDPTLTIEGCTSSSYFYANAYRKVPGDICVNGWVPEKVPVPCPSYAPFNKAAK
modifications: bait human Fc-tagged dimer; N-glycosylation sequons mutated in Plasmodium baits
With B1, the binding score came to 16.2 in assay [1]; 24.4 in assay [2]; 5.84 in assay [3]; 5.45 in assay [4]; 11.1 in assay [5]; 5.11 in assay [6]. The binding score came out at 12.8 in assay [7] and 10.3 in assay [8].

The record behind these values is publication PMC11098746 (2024).
